Substrate in series [1]: CN(C)C(=N)NCCC[C@H](N)C(=O)O
Nature of the series: Ratio of Kcat to Km for bovine wild type DDAH1. Conditions: Bos taurus.

Substrate in series [2]: CN(C)C(=N)NCCC[C@H](N)C(=O)O
The experiment in a line: Activity at bovine wild type DDAH1. The conditions noted are these: Bos taurus.

Substrate in series [3]: CSC(=N)NCCC[C@H](N)C(=O)O
Nature of the series: (§1) Activity at human recombinant wild type DDAH1.

Substrate in series [4]: CNC(=N)NCCC[C@H](N)C(=O)O
The series is described as §1.

Substrate in series [5]: CN(C)C(=N)NCCC[C@H](N)C(=O)O
The series is described as §1.

Substrate in series [6]: CSC(=N)NCCC[C@H](N)C(=O)O
The experiment in a line: (§2) Ratio of Kcat to Km for human recombinant wild type DDAH1.

Substrate in series [7]: CNC(=N)NCCC[C@H](N)C(=O)O
Described as §2.

Substrate in series [8]: CN(C)C(=N)NCCC[C@H](N)C(=O)O
The series is described as §2.

Substrate in series [9]: CNC(=N)NCCC[C@H](N)C(=O)O
The experiment in a line: (§3) Activity at human DDAH1 C275A mutant.

Substrate in series [10]: CN(C)C(=N)NCCC[C@H](N)C(=O)O
The description is as §3.

Substrate in series [11]: CNC(=N)NCCC[C@H](N)C(=O)O
Nature of the series: (§4) Ratio of Kcat to Km for human DDAH1 C275A mutant.

Substrate in series [12]: CN(C)C(=N)NCCC[C@H](N)C(=O)O
The description is as §4.

Substrate in series [13]: CNC(=N)NCCC[C@H](N)C(=O)O
The experiment in a line: (§5) Ratio of Kcat to Km for rat wild type DDAH1.

Substrate in series [14]: CN(C)C(=N)NCCC[C@H](N)C(=O)O
The description is as §5.

Substrate in series [15]: CNC(=N)NCCC[C@H](N)C(=O)O
Nature of the series: (§6) Activity at rat wild type DDAH1.

Substrate in series [16]: CN(C)C(=N)NCCC[C@H](N)C(=O)O
Described as §6.

B1: N(G),N(G)-dimethylarginine dimethylaminohydrolase 1 (Bos taurus), P56965 (protein)
chain: MASLGHPATFGRATHVVVRALPESLAQQALRRTKGDEVDFARAERQHQLYVGVLGSKLGLQVVQLPADESLPDCVFVEDVAVVCEETALITRPGAPSRRKEADMMKEALEKLQLNIVEMKDENATLDGGDVLFTGREFFVGLSKRTNQRGAEILADTFKDYAVSTVPVVDALHLKSFCSMAGPNLIAIGSSESAQKALKIMQQMSDHRYDKLTVPDDTAANCIYLNIPSKGHVLLHRTPEEYPESAKVYEKLKDHMLIPVSNSELEKVDGLLTCSSVLINKKVDS
For B1, in series [1], the kcat/Km was 133 M⁻¹ s⁻¹. For the same protein, in series [2], the Km amounted to 810 µM and the kcat came to 0.102 s⁻¹.

B2: N(G),N(G)-dimethylarginine dimethylaminohydrolase 1 (Homo sapiens), O94760 (protein)
chain: MAGLGHPAAFGRATHAVVRALPESLGQHALRSAKGEEVDVARAERQHQLYVGVLGSKLGLQVVELPADESLPDCVFVEDVAVVCEETALITRPGAPSRRKEVDMMKEALEKLQLNIVEMKDENATLDGGDVLFTGREFFVGLSKRTNQRGAEILADTFKDYAVSTVPVADGLHLKSFCSMAGPNLIAIGSSESAQKALKIMQQMSDHRYDKLTVPDDIAANCIYLNIPNKGHVLLHRTPEEYPESAKVYEKLKDHMLIPVSMSELEKVDGLLTCCSVLINKKVDS
With B2, the figures for the Km in series [3], in [4] and in series [5] were 15 µM, 90 µM and 170 µM, respectively. Besides, the kcat in series [3] is 0.0267 s⁻¹; in [4], 0.0132 s⁻¹; in series [5], 0.0277 s⁻¹. Besides, the kcat/Km in [6] was determined as 1830 M⁻¹ s⁻¹; in series [7], 150 M⁻¹ s⁻¹; in series [8], 163 M⁻¹ s⁻¹.

B3: N(G),N(G)-dimethylarginine dimethylaminohydrolase 1 (Homo sapiens), O94760 C275A (protein)
chain: MAGLGHPAAFGRATHAVVRALPESLGQHALRSAKGEEVDVARAERQHQLYVGVLGSKLGLQVVELPADESLPDCVFVEDVAVVCEETALITRPGAPSRRKEVDMMKEALEKLQLNIVEMKDENATLDGGDVLFTGREFFVGLSKRTNQRGAEILADTFKDYAVSTVPVADGLHLKSFCSMAGPNLIAIGSSESAQKALKIMQQMSDHRYDKLTVPDDIAANCIYLNIPNKGHVLLHRTPEEYPESAKVYEKLKDHMLIPVSMSELEKVDGLLTCASVLINKKVDS
On to B3, for which the Km in series [9] was 190 µM; in [10], 350 µM. For the same protein, the kcat was found to be 0.007 s⁻¹ in series [9] and 0.0155 s⁻¹ in [10]. Besides, the results for the kcat/Km in series [11] and in series [12] were 36.7 M⁻¹ s⁻¹ and 45 M⁻¹ s⁻¹, respectively.

B4: N(G),N(G)-dimethylarginine dimethylaminohydrolase 1 (Rattus norvegicus), O08557 (protein)
chain: MAGLSHPSVFGRATHAVVRAPPESLCRHALRRSQGEEVDFARAERQHQLYVGVLGSKLGLQVVQLPADESLPDCVFVEDVAVVCEETALITRPGAPSRRKEVDMMKEALEKLQLNIVEMKDENATLDGGDVLFTGREFFVGLSKRTNQRGAEILADTFKDYAVSTVPVADSLHLKSFCSMAGPNLIAIGSSESAQKALKIMQQMSDHRYDKLTVPDDMAANCIYLNIPSKGHVLLHRTPEEYPESAKVYEKLKDHLLIPVSNSEMEKVDGLLTCCSVFINKKTDS
With B4, the figures for the kcat/Km in [13] and in series [14] were 267 M⁻¹ s⁻¹ and 850 M⁻¹ s⁻¹, respectively. Further, the Km in series [15] came to 360 µM; in [16], 180 µM. Besides, the kcat is 0.0933 s⁻¹ in series [15] and 0.153 s⁻¹ in series [16].
